# IntAct's records for PubMed 31515488
# B1: Late cornified envelope protein 1B (Homo sapiens), Q5T7P3 (parent)
# chain: MSCQQNQQQCQPPPKCIPKCPPKCLTPRCPPKCPPKCPPVSSCCSVSSGGCCGSSSGGSCGSSSGGCCSSGGGGCCLSHHRRRRSHCHRPQSSGCCSQPSGGSSCCGGGSGQHSGGCC
# B2: Caspase recruitment domain-containing protein 9 (Homo sapiens), Q9H257 (parent)
# chain: MSDYENDDECWSVLEGFRVTLTSVIDPSRITPYLRQCKVLNPDDEEQVLSDPNLVIRKRKVGVLLDILQRTGHKGYVAFLESLELYYPQLYKKVTGKEPARVFSMIIDASGESGLTQLLMTEVMKLQKKVQDLTALLSSKDDFIKELRVKDSLLRKHQERVQRLKEECEAGSRELKRCKEENYDLAMRLAHQSEEKGAALMRNRDLQLEIDQLKHSLMKAEDDCKVERKHTLKLRHAMEQRPSQELLWELQQEKALLQARVQELEASVQEGKLDRSSPYIQVLEEDWRQALRDHQEQANTIFSLRKDLRQGEARRLRCMEEKEMFELQCLALRKDSKMYKDRIEAILLQMEEVAIERDQAIATREELHAQHARGLQEKDALRKQVRELGEKADELQLQVFQCEAQLLAVEGRLRRQQLETLVLSSDLEDGSPRRSQELSLPQDLEDTQLSDKGCLAGGGSPKQPFAALHQEQVLRNPHDAGLSSGEPPEKERRRLKESFENYRRKRALRKMQKGWRQGEEDRENTTGSDNTDTEGS
# B3: Zinc finger CCCH-type with G patch domain-containing protein (Homo sapiens), Q8N5A5 (parent)
# chain: MDEESLESALQTYRAQLQQVELALGAGLDSSEQADLRQLQGDLKELIELTEASLVSVRKSSLLAALDEERPGRQEDAEYQAFREAITEAVEAPAAARGSGSETVPKAEAGPESAAGGQEEEEGEDEEELSGTKVSAPYYSSWGTLEYHNAMVVGTEEAEDGSAGVRVLYLYPTHKSLKPCPFFLEGKCRFKENCRFSHGQVVSLDELRPFQDPDLSSLQAGSACLAKHQDGLWHAARITDVDNGYYTVKFDSLLLREAVVEGDGILPPLRTEATESDSDSDGTGDSSYARVVGSDAVDSAQSSALCPSLAVVGSDAVDSGTCSSAFAGWEVHTRGIGSRLLTKMGYEFGKGLGRHAEGRVEPIHAVVLPRGKSLDQCVETLQKQTRVGKAGTNKPPRCRGRGARPGGRPAPRNVFDFLNEKLQGQAPGALEAGAAPAGRRSKDMYHASKSAKRALSLRLFQTEEKIERTQRDIRSIQEALARNAGRHSVASAQLQEKLAGAQRQLGQLRAQEAGLQQEQRKADTHKKMTEF
# B4: "Bile acid-CoA:amino acid N-acyltransferase" (Homo sapiens), Q14032 (parent)
# chain: MIQLTATPVSALVDEPVHIRATGLIPFQMVSFQASLEDENGDMFYSQAHYRANEFGEVDLNHASSLGGDYMGVHPMGLFWSLKPEKLLTRLLKRDVMNRPFQVQVKLYDLELIVNNKVASAPKASLTLERWYVAPGVTRIKVREGRLRGALFLPPGEGLFPGVIDLFGGLGGLLEFRASLLASRGFASLALAYHNYEDLPRKPEVTDLEYFEEAANFLLRHPKVFGSGVGVVSVCQGVQIGLSMAIYLKQVTATVLINGTNFPFGIPQVYHGQIHQPLPHSAQLISTNALGLLELYRTFETTQVGASQYLFPIEEAQGQFLFIVGEGDKTINSKAHAEQAIGQLKRHGKNNWTLLSYPGAGHLIEPPYSPLCCASTTHDLRLHWGGEVIPHAAAQEHAWKEIQRFLRKHLIPDVTSQL
# B5: Fanconi anemia group G protein (Homo sapiens), O15287 (parent)
# chain: MSRQTTSVGSSCLDLWREKNDRLVRQAKVAQNSGLTLRRQQLAQDALEGLRGLLHSLQGLPAAVPVLPLELTVTCNFIILRASLAQGFTEDQAQDIQRSLERVLETQEQQGPRLEQGLRELWDSVLRASCLLPELLSALHRLVGLQAALWLSADRLGDLALLLETLNGSQSGASKDLLLLLKTWSPPAEELDAPLTLQDAQGLKDVLLTAFAYRQGLQELITGNPDKALSSLHEAASGLCPRPVLVQVYTALGSCHRKMGNPQRALLYLVAALKEGSAWGPPLLEASRLYQQLGDTTAELESLELLVEALNVPCSSKAPQFLIEVELLLPPPDLASPLHCGTQSQTKHILASRCLQTGRAGDAAEHYLDLLALLLDSSEPRFSPPPSPPGPCMPEVFLEAAVALIQAGRAQDALTLCEELLSRTSSLLPKMSRLWEDARKGTKELPYCPLWVSATHLLQGQAWVQLGAQKVAISEFSRCLELLFRATPEEKEQGAAFNCEQGCKSDAALQQLRAAALISRGLEWVASGQDTKALQDFLLSVQMCPGNRDTYFHLLQTLKRLDRRDEATALWWRLEAQTKGSHEDALWSLPLYLESYLSWIRPSDRDAFLEEFRTSLPKSCDL
# B6: Syntenin-1 (Homo sapiens), O00560 (parent)
# chain: MSLYPSLEDLKVDKVIQAQTAFSANPANPAILSEASAPIPHDGNLYPRLYPELSQYMGLSLNEEEIRANVAVVSGAPLQGQLVARPSSINYMVAPVTGNDVGIRRAEIKQGIREVILCKDQDGKIGLRLKSIDNGIFVQLVQANSPASLVGLRFGDQVLQINGENCAGWSSDKAHKVLKQAFGEKITMTIRDRPFERTITMHKDSTGHVGFIFKNGKITSIVKDSSAARNGLLTEHNICEINGQNVIGLKDSQIADILSTSGTVVTITIMPAFIFEHIIKRMAPSIMKSLMDHTIPEV
# partner: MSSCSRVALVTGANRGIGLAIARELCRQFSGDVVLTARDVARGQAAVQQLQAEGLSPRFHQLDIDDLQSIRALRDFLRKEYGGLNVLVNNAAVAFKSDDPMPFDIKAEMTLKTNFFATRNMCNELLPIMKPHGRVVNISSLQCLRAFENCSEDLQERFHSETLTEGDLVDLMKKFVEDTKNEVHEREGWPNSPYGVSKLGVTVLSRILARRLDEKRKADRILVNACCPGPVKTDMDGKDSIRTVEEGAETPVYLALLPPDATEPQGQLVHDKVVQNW
# B7: Dickkopf-related protein 1 (Homo sapiens), O94907 (parent)
# chain: MMALGAAGATRVFVAMVAAALGGHPLLGVSATLNSVLNSNAIKNLPPPLGGAAGHPGSAVSAAPGILYPGGNKYQTIDNYQPYPCAEDEECGTDEYCASPTRGGDAGVQICLACRKRRKRCMRHAMCCPGNYCKNGICVSSDQNHFRGEIEETITESFGNDHSTLDGYSRRTTLSSKMYHTKGQEGSVCLRSSDCASGLCCARHFWSKICKPVLKEGQVCTKHRRKGSHGLEIFQRCYCGEGLSCRIQKDHHQASNSSRLHTCQRH
# B8: Cyclin-D1-binding protein 1 (Homo sapiens), O95273 (parent)
# chain: MASATAPAAAVPTLASPLEQLRHLAEELRLLLPRVRVGEAQETTEEFNREMFWRRLNEAAVTVSREATTLTIVFSQLPLPSPQETQKFCEQVHAAIKAFIAVYYLLPKDQGITLRKLVRGATLDIVDGMAQLMEVLSVTPTQSPENNDLISYNSVWVACQQMPQIPRDNKAAALLMLTKNVDFVKDAHEEMEQAVEECDPYSGLLNDTEENNSDNHNHEDDVLGFPSNQDLYWSEDDQELIIPCLALVRASKACLKKIRMLVAENGKKDQVAQLDDIVDISDEISPSVDDLALSIYPPMCHLTVRINSAKLVSVLKKALEITKASHVTPQPEDSWIPLLINAIDHCMNRIKELTQSELEL
# Variants of: B1
# Conditions: with hxa1_human HOXA1, P49639
# Chain of hxa1_human HOXA1, P49639 (P49639 whole entry): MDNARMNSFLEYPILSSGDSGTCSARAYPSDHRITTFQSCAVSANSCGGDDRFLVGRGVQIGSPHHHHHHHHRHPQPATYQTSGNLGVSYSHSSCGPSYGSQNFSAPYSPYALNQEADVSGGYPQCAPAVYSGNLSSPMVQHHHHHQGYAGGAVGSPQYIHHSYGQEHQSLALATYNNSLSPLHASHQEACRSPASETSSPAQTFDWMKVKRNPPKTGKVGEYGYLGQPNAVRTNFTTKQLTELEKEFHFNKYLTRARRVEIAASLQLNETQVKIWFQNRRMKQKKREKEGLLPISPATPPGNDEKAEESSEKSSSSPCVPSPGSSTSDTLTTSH
row,effect of a mutation on the interaction,Variant
1,with no effect,C51Y
2,with no effect,G108E

# Variants of: B1
# Conditions: with nt2na_human NOTCH2NLA
row,effect of a mutation on the interaction,Variant
1,with no effect,C51Y
2,with no effect,G108E

# Variants of: B1
# Conditions: with kr101_human KRTAP10-1, P60331
# Target sequence in this assay (P60331 whole entry): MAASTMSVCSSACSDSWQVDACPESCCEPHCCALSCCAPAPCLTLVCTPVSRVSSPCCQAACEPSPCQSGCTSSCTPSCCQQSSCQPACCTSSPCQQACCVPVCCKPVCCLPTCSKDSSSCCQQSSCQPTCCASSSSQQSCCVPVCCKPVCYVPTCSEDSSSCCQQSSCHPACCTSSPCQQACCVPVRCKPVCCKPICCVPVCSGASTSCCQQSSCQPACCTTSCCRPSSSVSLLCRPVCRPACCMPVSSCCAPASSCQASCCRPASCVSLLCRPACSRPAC
row,effect of a mutation on the interaction,Variant
1,with no effect,C51Y
2,with no effect,G108E

# Variants of: B1
# Conditions: with otx1_human OTX1, P32242
# Chain of otx1_human OTX1, P32242 (P32242 whole entry): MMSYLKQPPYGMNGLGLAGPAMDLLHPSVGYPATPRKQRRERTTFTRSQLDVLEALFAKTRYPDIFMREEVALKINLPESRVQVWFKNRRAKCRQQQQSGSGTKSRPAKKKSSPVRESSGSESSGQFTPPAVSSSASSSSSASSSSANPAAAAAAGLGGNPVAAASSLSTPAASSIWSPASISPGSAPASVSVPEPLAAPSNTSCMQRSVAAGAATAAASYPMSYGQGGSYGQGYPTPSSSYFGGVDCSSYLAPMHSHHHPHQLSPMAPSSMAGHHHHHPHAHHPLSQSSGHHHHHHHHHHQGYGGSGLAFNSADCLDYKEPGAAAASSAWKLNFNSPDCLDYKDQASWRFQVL
row,effect of a mutation on the interaction,Variant
1,with no effect,C51Y
2,with no effect,G108E

# Variants of: B1
# Conditions: with rgs20_human RGS20, O76081
row,effect of a mutation on the interaction,Variant
1,with no effect,R83H

# Variants of: B1
# Conditions: with kra32_human KRTAP3-2, Q9BYR7
row,effect of a mutation on the interaction,Variant
1,with no effect,R83H

# Variants of: B2
# Conditions: with tri23_human TRIM23, P36406
row,effect of a mutation on the interaction,Variant
1,with no effect,R173H

# Variants of: B2
# Conditions: with KRT19, P08727
# Target sequence in this assay (P08727 whole entry): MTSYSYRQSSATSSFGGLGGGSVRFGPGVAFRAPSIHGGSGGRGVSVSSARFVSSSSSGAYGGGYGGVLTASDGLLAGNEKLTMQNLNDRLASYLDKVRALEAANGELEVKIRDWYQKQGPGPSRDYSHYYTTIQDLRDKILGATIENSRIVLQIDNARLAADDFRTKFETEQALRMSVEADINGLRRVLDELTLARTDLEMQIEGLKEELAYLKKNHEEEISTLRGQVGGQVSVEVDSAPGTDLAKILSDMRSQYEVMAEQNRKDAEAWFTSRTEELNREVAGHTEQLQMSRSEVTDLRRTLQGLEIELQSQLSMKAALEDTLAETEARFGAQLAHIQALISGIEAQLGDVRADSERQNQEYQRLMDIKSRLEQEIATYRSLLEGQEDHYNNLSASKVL
row,effect of a mutation on the interaction,Variant
1,with no effect,R173H

# Variants of: B2
# Conditions: with pak5_human PAK5, Q9P286
row,effect of a mutation on the interaction,Variant
1,with no effect,V385L

# Variants of: B2
# Conditions: with zn572_human ZNF572, Q7Z3I7
# Chain of zn572_human ZNF572, Q7Z3I7 (Q7Z3I7 whole entry): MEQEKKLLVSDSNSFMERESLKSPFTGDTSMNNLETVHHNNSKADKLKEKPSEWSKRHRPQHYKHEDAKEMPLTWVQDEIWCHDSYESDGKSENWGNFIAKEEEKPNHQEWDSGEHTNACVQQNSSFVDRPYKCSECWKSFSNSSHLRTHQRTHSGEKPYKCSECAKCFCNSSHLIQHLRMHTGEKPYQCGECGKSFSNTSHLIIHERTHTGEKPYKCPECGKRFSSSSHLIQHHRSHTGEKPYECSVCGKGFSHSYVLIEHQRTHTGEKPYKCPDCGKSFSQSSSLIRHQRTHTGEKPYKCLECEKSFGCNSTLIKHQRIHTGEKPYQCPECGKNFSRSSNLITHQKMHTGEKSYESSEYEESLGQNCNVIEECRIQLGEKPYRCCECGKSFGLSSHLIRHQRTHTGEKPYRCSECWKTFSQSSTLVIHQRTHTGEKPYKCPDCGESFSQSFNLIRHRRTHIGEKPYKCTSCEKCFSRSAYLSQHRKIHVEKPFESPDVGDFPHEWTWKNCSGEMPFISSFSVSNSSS
row,effect of a mutation on the interaction,Variant
1,disrupting interaction strength,V385L

# Variants of: B2
# Conditions: with KIAA0408, Q6ZU52
row,effect of a mutation on the interaction,Variant
1,with no effect,S12N

# Variants of: B3
# Conditions: with tfp11_human TFIP11, Q9UBB9
row,effect of a mutation on the interaction,Variant
1,with no effect,S61R

# Variants of: B3
# Conditions: with cep70_human CEP70, Q8NHQ1
# Chain of cep70_human CEP70, Q8NHQ1 (Q8NHQ1 whole entry): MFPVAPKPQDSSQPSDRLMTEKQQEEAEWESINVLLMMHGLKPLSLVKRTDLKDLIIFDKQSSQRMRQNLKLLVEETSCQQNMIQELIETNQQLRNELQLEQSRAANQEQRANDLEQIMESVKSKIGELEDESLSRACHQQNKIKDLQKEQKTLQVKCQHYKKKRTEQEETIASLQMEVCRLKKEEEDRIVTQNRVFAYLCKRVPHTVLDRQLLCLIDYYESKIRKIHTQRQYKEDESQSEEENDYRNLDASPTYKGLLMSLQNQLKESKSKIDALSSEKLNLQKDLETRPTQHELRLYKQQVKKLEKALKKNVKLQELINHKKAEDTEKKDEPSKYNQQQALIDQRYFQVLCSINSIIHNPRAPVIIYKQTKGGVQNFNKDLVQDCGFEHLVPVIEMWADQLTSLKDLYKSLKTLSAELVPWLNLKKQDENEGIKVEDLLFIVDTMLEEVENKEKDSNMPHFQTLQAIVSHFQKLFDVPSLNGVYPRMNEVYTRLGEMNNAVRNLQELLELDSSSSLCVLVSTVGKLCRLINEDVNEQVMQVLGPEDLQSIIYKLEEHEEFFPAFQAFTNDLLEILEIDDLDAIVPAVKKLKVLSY
row,effect of a mutation on the interaction,Variant
1,with no effect,S61R

# Variants of: B3
# Conditions: with ldoc1_human LDOC1, O95751
row,effect of a mutation on the interaction,Variant
1,with no effect,S61R

# Variants of: B4
# Conditions: with FBP1, P09467
# Chain of FBP1, P09467 (P09467 whole entry): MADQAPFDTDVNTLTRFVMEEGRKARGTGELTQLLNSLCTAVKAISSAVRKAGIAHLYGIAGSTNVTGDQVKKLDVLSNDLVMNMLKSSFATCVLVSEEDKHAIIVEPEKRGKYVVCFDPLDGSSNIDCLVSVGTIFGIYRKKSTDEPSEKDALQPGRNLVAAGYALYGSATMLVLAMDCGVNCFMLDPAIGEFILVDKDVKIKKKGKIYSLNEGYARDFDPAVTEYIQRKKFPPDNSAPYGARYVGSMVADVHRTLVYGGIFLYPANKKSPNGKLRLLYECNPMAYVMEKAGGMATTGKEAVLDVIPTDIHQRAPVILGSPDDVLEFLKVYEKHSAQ
row,effect of a mutation on the interaction,Variant
1,with no effect,R201P
2,with no effect,V304A

# Variants of: B4
# Conditions: with fhl3_human FHL3, Q13643
row,effect of a mutation on the interaction,Variant
1,with no effect,A182S

# Variants of: B5
# Conditions: with mbip1_human MBIP
row,effect of a mutation on the interaction,Variant
1,with no effect,S7F
2,with no effect,T297I

# Variants of: B5
# Conditions: with KRT15, P19012
# Chain of KRT15, P19012 (P19012 whole entry): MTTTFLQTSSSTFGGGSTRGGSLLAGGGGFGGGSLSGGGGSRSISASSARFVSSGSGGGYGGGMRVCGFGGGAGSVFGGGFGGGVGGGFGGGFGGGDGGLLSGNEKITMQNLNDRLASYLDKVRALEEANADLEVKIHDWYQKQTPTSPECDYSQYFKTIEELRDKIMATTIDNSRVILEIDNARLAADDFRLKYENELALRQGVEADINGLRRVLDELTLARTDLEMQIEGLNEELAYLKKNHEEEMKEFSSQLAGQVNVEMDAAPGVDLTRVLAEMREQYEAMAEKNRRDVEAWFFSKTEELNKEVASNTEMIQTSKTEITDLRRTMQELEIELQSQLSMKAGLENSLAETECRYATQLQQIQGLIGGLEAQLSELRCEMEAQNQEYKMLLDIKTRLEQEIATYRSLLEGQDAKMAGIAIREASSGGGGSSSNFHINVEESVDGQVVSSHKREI
row,effect of a mutation on the interaction,Variant
1,with no effect,S7F
2,with no effect,T297I

# Variants of: B5
# Conditions: with cenpr_human ITGB3BP
row,effect of a mutation on the interaction,Variant
1,with no effect,S7F
2,with no effect,T297I

# Variants of: B5
# Conditions: with KRT19, P08727
# Target sequence in this assay (P08727 whole entry): as the sequence (P08727 whole entry) above
row,effect of a mutation on the interaction,Variant
1,with no effect,S7F
2,with no effect,T297I

# Variants of: B6
# Conditions: with cbr3_human CBR3, O75828
row,effect of a mutation on the interaction,Variant
1,with no effect,K124R

# Variants of: B7
# Conditions: with kr101_human KRTAP10-1, P60331
# Target sequence in this assay (P60331 whole entry): as the sequence (P60331 whole entry) above
row,effect of a mutation on the interaction,Variant
1,with no effect,S207Y

# Variants of: B7
# Conditions: with mdfi_human MDFI
row,effect of a mutation on the interaction,Variant
1,with no effect,S207Y

# Variants of: B8
# Conditions: with ezh1_human EZH1, Q92800
# Chain of ezh1_human EZH1, Q92800 (Q92800 whole entry): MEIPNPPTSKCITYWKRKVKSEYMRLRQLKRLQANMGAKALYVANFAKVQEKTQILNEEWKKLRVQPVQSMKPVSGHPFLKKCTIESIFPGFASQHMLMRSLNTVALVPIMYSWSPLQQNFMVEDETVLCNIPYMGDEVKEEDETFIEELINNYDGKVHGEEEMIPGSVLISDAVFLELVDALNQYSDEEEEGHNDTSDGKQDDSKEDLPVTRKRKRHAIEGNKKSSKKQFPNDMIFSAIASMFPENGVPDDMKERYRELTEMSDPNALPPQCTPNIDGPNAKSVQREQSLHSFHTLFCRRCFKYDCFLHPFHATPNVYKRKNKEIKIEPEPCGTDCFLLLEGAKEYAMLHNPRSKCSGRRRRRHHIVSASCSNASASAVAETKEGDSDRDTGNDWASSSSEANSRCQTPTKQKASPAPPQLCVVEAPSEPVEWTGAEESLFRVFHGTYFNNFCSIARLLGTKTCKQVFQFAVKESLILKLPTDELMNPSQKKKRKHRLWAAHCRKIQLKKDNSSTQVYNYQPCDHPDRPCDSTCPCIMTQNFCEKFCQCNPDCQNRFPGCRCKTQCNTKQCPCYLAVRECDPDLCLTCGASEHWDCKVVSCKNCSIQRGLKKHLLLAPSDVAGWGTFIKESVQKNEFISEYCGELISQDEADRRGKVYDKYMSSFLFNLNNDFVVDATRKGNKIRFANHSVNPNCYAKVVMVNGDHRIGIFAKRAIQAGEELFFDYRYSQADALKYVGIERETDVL
row,effect of a mutation on the interaction,Variant
1,disrupting interaction strength,I277T

# Variants of: B8
# Conditions: with pex39_human PEX39, Q5I0X4
# Chain of pex39_human PEX39, Q5I0X4 (Q5I0X4 whole entry): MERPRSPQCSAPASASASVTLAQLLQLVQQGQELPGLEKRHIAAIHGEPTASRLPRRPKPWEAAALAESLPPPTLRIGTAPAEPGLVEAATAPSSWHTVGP
row,effect of a mutation on the interaction,Variant
1,disrupting interaction strength,I277T

# Variants of: B8
# Conditions: with evg1_human C22orf23, Q9BZE7
row,effect of a mutation on the interaction,Variant
1,disrupting interaction strength,I277T

# Variants of: B8
# Conditions: with map7_human MAP7, Q14244
# Chain of map7_human MAP7, Q14244 (Q14244 whole entry): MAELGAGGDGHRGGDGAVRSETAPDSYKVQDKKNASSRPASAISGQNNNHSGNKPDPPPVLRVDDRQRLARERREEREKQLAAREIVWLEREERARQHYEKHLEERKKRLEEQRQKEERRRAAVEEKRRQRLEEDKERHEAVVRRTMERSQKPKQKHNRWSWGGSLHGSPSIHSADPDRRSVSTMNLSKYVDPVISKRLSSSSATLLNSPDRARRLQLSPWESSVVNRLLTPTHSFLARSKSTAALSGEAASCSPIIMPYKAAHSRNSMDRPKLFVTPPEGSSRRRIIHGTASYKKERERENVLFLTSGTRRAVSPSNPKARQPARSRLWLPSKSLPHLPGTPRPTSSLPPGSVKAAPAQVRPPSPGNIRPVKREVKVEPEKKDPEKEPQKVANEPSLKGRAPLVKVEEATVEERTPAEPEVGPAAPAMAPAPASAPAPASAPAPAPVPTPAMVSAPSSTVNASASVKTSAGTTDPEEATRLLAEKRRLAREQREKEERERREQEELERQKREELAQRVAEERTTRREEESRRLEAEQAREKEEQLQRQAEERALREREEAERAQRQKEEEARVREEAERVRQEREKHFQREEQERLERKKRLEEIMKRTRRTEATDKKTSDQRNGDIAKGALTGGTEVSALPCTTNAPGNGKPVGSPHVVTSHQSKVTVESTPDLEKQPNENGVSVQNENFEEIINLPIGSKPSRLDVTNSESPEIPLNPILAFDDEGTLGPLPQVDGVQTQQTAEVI
row,effect of a mutation on the interaction,Variant
1,disrupting interaction strength,I277T

# Variants of: B8
# Conditions: with myp2_human PMP2, P02689
row,effect of a mutation on the interaction,Variant
1,disrupting interaction strength,I277T

# Variants of: B8
# Conditions: with rl39l_human RPL39L
row,effect of a mutation on the interaction,Variant
1,disrupting interaction strength,I277T

# Variants of: B8
# Conditions: with zn707_human ZNF707, Q96C28
row,effect of a mutation on the interaction,Variant
1,disrupting interaction strength,I277T

# Variants of: B8
# Conditions: with bmp7_human BMP7, P18075
row,effect of a mutation on the interaction,Variant
1,disrupting interaction strength,I277T

# Variants of: B8
# Conditions: with zn136_human ZNF136, P52737
row,effect of a mutation on the interaction,Variant
1,disrupting interaction strength,I277T

# Variants of: B8
# Conditions: with cul5_human CUL5, Q93034
row,effect of a mutation on the interaction,Variant
1,disrupting interaction strength,I277T

# Variants of: B8
# Conditions: with zn555_human ZNF555, Q8NEP9
row,effect of a mutation on the interaction,Variant
1,disrupting interaction strength,I277T

# Variants of: B8
# Conditions: with ilf2_human ILF2, Q12905
row,effect of a mutation on the interaction,Variant
1,disrupting interaction strength,I277T

# Variants of: B8
# Conditions: with tnnt1_human TNNT1, P13805
row,effect of a mutation on the interaction,Variant
1,disrupting interaction strength,I277T

# Variants of: B8
# Conditions: with nano2_human NANOS2, P60321
row,effect of a mutation on the interaction,Variant
1,disrupting interaction strength,I277T

# Variants of: B8
# Conditions: with tha10_human THAP10, Q9P2Z0
row,effect of a mutation on the interaction,Variant
1,disrupting interaction strength,I277T

# Variants of: B8
# Conditions: with tppc5_human TRAPPC5, Q8IUR0
row,effect of a mutation on the interaction,Variant
1,disrupting interaction strength,I277T
